The values below come from PMC4996978, “A MUB E2 structure reveals E1 selectivity between cognate ubiquitin E2s in eukaryotes” (Nature Communications, 2016).

Changes are numbered by the printed parent chain. Names may count otherwise.

The target of one assay is T1, GST-AtUBC8 (Arabidopsis thaliana, UniProt P35131 1-148).
T1 construct: Arabidopsis thaliana ubiquitin-conjugating enzyme E2 8 (AtUBC8); also called GST-tagged AtUBC8; source: E. coli Rosetta 2 (DE3) pLacI, soluble extract fraction immobilized on GSH resin and washed
T1 sequence (P35131 whole entry): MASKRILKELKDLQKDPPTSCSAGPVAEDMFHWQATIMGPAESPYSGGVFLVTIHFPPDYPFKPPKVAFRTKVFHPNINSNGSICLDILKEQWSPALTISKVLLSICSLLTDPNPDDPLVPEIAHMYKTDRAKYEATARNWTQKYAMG
The experiment in a line: pull-down; GST-AtUBC8 immobilized on GSH resin; equimolar His-tagged AtMUB3, AtMUB3 mutants and Ub incubated separately for 15 min; washed three times with sonication buffer (50 mM Tris-HCl pH 7.5, 300 mM NaCl, 10% glycerol, 10 mM imidazole); immunoblot. The following applies: both partners purified. (In western blotting, separated proteins are transferred to a membrane and probed.)

In another assay the target is T2, biotinylated E2 (Ube2D3) (human, UniProt P61077 1-147, biotin).
T2 construct: human ubiquitin-conjugating enzyme E2 D3 (Ube2D3), biotinylated, labelled with streptavidin-terbium in the assay; source: reagents adapted from the E1/E2 Lite kit (LifeSensors, Malvern, PA)
T2 sequence (P61077 whole entry): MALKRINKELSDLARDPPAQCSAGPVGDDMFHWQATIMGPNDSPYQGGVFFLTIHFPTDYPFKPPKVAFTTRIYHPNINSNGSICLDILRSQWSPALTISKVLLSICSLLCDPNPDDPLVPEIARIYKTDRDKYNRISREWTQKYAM
The experiment in a line: inhibition of E2 activation (HTRF-FRET E2∼Ub formation assay); 1 nM E1 (HsUBE1), 10 μM Mg-ATP, 50 nM Ub-fluorescein, 0.9 nM streptavidin-terbium, 5 nM biotinylated Ube2D3; 50 mM Tris-HCl pH 7.5, 5 mM MgCl2, 0.05% CHAPS; HsMUB pre-incubated with E2 for 15 min; initial velocity against HsMUB concentration fit to a one-site binding model; IC50 equivalent to Ki. The following applies: both partners purified. In general terms: In TR-FRET formats the signal depends on donor and acceptor labels being close together.

B1: AtMUB3-His (natural protein, Arabidopsis thaliana, UniProt Q9SW27 1-118, looked up)
chain: MPEEESIDIKFRLYDGSDIGPFRYSAASTVDFLKQRVVSDWPKGKTVVPKGINEVKLISSGKILENNKTVGQCKTPFGDIAGGVIVMHVVVQPSLAKSKTEKKVDKAPKAVICTCTIL
notes: coding region cloned without stop codon into pET28b; also called His-tagged AtMUB3; not shown: His6, C-terminal, kept
For B1, the binding result with GST-AtUBC8 is reported as “binds”.

B2: AtMUB3 P76A F77A G78A D79A I80A (All A) (natural protein, Arabidopsis thaliana)
chain: B1 chain with P76A, F77A, G78A, D79A, I80A
notes: Generated by bridging-PCR and cloned into pET28b; also called AtMUB3 All A LBL mutant; AtMUB3 with the core LBL residues ProPheGlyAspIle all converted to alanines
Turning to B2, the binding result with GST-AtUBC8 is “binds”.

B3: HsMUB (natural protein, human, UniProt O95164 1-117, looked up)
chain: MSSNVPADMINLRLILVSGKTKEFLFSPNDSASDIAKHVYDNWPMDWEEEQVSSPNILRLIYQGRFLHGNVTLGALKLPFGKTTVMHLVARETLPEPNSQGQRNREKTGESNCCVIL
notes: Homo sapiens membrane-anchored ubiquitin-fold protein (HsMUB); coding region cloned without stop codon into pET28b; also called human homologue of MUB; source: E. coli Rosetta 2 (DE3) pLacI, purified
Take B3: the Ki (commonly a measure of affinity in units of concentration, obtained from inhibition or displacement) with biotinylated E2 (Ube2D3) came out at 220 ± 16 nM.
